Assay results published in paper PMC4330348, “Identification of protein complexes that bind to histone H3 combinatorial modifications using super-SILAC and weighted correlation network analysis” (Nucleic Acids Research, 2015).

Biological target: T1, histone H3 peptide aa1–20 trimethylated at K9 (H3K9me3) (UniProt P68431 2-21, trimethyl-lysine at K9; biotin attached to the C-terminus via a glycine-lysine linker)
T1 construct: histone H3 N-terminal tail, aa1–20; glycine-lysine linker (told in words), carries the biotin; also called H3K9me3 modified H3 1–20 peptide; source: synthetic peptide (GL biochem)
Test: affinity purification with mass spectrometry; biotinylated histone H3 peptides on NeutrAvidin beads; pooled nuclear and MNase-solubilised chromatin extracts of SILAC-labelled MPC11 cells adjusted to 150 mM NaCl, 4°C; washes with 150 mM KCl, 0.2% Triton X-100; heavy pulldowns against a mixed light reference (super-SILAC); beads alone as control; two replicates
Details: one partner purified

Chain of Ezh2 (Q61188 whole entry): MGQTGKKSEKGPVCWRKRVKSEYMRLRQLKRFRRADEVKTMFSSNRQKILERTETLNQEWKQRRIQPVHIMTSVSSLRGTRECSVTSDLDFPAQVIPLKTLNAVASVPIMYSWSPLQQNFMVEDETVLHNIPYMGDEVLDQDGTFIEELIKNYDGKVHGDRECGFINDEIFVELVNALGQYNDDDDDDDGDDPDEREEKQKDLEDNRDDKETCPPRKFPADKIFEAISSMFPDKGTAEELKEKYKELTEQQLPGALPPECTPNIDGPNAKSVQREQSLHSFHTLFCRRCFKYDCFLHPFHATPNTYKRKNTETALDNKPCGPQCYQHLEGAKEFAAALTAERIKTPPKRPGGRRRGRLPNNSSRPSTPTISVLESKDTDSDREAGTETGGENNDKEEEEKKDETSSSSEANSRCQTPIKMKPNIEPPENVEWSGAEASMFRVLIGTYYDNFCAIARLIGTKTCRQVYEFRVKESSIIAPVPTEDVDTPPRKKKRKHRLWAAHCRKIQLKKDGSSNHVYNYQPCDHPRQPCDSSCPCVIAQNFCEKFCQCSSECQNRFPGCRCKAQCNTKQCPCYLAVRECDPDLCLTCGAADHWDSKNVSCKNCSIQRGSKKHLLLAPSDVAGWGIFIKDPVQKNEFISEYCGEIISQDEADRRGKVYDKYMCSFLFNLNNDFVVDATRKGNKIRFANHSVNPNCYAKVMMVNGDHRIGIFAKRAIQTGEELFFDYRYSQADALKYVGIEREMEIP
Chain of Eed (Q921E6 whole entry): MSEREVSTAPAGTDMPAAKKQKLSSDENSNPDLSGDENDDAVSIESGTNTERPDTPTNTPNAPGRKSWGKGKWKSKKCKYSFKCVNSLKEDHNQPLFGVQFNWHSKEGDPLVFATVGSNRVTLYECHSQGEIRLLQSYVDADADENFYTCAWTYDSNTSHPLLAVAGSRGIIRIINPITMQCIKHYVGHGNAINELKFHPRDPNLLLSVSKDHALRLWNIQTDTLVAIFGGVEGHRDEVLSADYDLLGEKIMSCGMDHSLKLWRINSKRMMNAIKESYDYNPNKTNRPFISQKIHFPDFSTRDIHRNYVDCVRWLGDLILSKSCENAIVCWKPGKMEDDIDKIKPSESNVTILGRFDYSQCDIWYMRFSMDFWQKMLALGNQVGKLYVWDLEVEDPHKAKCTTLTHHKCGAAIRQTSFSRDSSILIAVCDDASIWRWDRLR

fold binding relative to the H3K27me3 peptide | Binder
~3 fold | Suz12 (natural protein, mouse (endogenous in MPC11), UniProt Q80U70 1-741, looked up, Suz12, mouse; also called PRC2 complex member; source: endogenous, MPC11 nuclear and chromatin extract) MAPQKHGGGGGGGSGPSAGSGGGGFGGSAAAVAAAASGGKSGGGGCGGGGSYSASSSSAAAAAAAAGAAVLPVKKPKMEHVQADHELFLQAFEKPTQIYRFLRTRNLIAPIFLHRTLTYMSHRNSRTSIKRKTFKVDDMLSKVEKMKGEQESHSLSAHLQLTFTGFFHKNDKPSQNSENEQNSVTLEVLLVKVCHKKRKDVSCPIRQVPTGKKQVPLNPDLNQTKPGNFPSLAVSSNEFEPSNSHMVKSYSLLFRVTRPGRREFNGMINGETNENIDVSEELPARRKRNREDGEKTFVAQMTVFDKNRRLQLLDGEYEVAMQEMEECPISKKRATWETILDGKRLPPFETFSQGPTLQFTLRWTGETNDKSTAPVAKPLATRNSESLHQENKPGSVKPAQTIAVKETLTTELQTRKEKDNSNESRQKLRIFYQFLYNNNTRQQTEARDDLHCPWCTLNCRKLYSLLKHLKLCHSRFIFNYVYHPKGARIDVSINECYDGSYAGNPQDIHRQPGFAFSRNGPVKRTPITHILVCRPKRTKASMSEFLESEDGEVEQQRTYSSGHNRLYFHSDTCLPLRPQEMEVDSEDEKDPEWLREKTITQIEEFSDVNEGEKEVMKLWNLHVMKHGFIADNQMNHACMLFVENYGQKIIKKNLCRNFMLHLVSMHDFNLISIMSIDKAVTKLREMQQKLEKGESATPSNEEIAEEQNGTANGFSETNSKEKALETDGVSGVPKQSKKQKL
~3 fold | Eed (natural protein, Eed, mouse; also called PRC2 complex member; source: endogenous, MPC11 nuclear and chromatin extract) not shown
~3 fold | Ezh2 (enzyme, Ezh2, mouse; also called PRC2 complex member; source: endogenous, MPC11 nuclear and chromatin extract) not shown
